The subject of the series is Ir-CPI (Ixodes ricinus Contact Phase Inhibitor), recombinant, without its peptide signal.

Take kallikrein: the “activation of factor XII into factor XIIa by kallikrein, reconstituted system with purified factors, chromogenic substrate” value was “Ir-CPI did not inhibit the activation of factor XII into factor XIIa by kallikrein” and the “amidolytic activity (chromogenic substrate S-2302), protease preincubated with Ir-CPI at 1:5 molar ratio” value was “The results obtained did not show any effect of Ir-CPI protein on the amidolytic activity of these factors”.
Turning to factor XIa, the “activation of factor XII into factor XIIa by factor XIa, reconstituted system with purified factors, chromogenic substrate” value is reported as “Ir-CPI inhibits ... the activation of factor XII into factor XIIa by factor XIa” and the “amidolytic activity (chromogenic substrate S-2366), protease preincubated with Ir-CPI at 1:5 molar ratio” value is “The results obtained did not show any effect of Ir-CPI protein on the amidolytic activity of these factors”.
